Data from patent US8778303B2, “99mTc-labeled 19 amino acid containing peptide for use as phosphatidylethanolamine binding molecular probe and radiopharmaceutical” (The Medical College of Wisconsin, Inc., priority 2008, dated 2014).
“Also recorded” adds a separate entry of the source.

How the values were obtained:
[1] = system: apoptotic Jurkat lymphocytes; experiment: In vitro binding tests, apoptotic vs viable cells; details: for binding to apoptotic cells: apoptotic Jurkat lymphocytes
Experimental: In vitro binding tests. The PtdE-binding activity of ^99mTc-HYNIC-Duramycin was examined using binding assays in vitro. A good source of exposed PtdE was apoptotic Jurkat lymphocytes incubated with 5 μM final concentration of camptothecin at 37° C. in a humidified atmosphere with 5% CO2. Untreated control or treated cells were harvested by centrifugation at 800 g for 5 min and re-suspended at 2×10^6 per ml. Radiolabeled Duramycin or Duramycin^1 (inactivated Duramycin) was added to each ml of cells at a final concentration of 100 nM, and the binding was allowed to proceed for 5 min at room temperature. The mixture was then loaded onto a layer of Histopaque. After centrifugation at 800 g for 5 min, cell pellet was collected at the bottom of the tube below the Histopaque layer, whereas the media that contained the non-bound radioactivity will remain above Histopaque. The aqueous supernatant was removed by gentle aspiration. The tip of the tube that contains the pellet was cut off using a hot scalpel. Bound radioactivity was determined by direct gamma counting at an energy window of 140±15 keV.

[2] = Biodistribution studies in healthy rats; type: in vivo, rat
Experimental: Biodistribution studies. […] Dynamic whole-body biodistribution profile was acquired using an in-house gamma camera (GE XRT). The anesthetized animal was continuously imaged at an energy window of 140±15 keV, field of view 22.5×22.5 cm, matrix 128×128, at 1 min per image for up to 60 min post-injection.
For quantitative biodistribution, at each designated time point after intravenous injection of radiolabeled Duramycin, including 0, 1, 5, 15, 30, and 60 min, a group of 4 rats were sacrificed. Various tissues were dissected, rinsed in saline, weighed, and the level of radioactivity was determined using direct gamma counting (140±15 keV).

[3] = system: radiation-induced cell death; experiment: Imaging of radiation-induced cell death after whole-body irradiation; type: in vivo, rat; details: rats, 15 Gy whole-body ionizing irradiation
Text: In an experimental example, 99mTc-Duramycin imaging was used to detect the distribution of radiation-prone tissues after exposure to high-dose ionizing irradiation. […] Control rats were not exposed to ionizing radiation. […] The most radiation-susceptible tissues include the thymus (arrow) and bone marrows (arrow heads and bottom insets).

For `CC(C)=NNc1ccc(C(=O)NCCCC[C@@H]2NC(=O)[C@@H](N)CS[C@@H](C)[C@H]3NC(=O)[C@H](CC(N)=O)NC(=O)CNC(=O)[C@H]([C@@H](O)C(=O)O)NC(=O)[C@@H]4CSC[C@@H](NC(=O)[C@H](CCC(N)=O)NC2=O)C(=O)N[C@H]2CS[C@@H](C)[C@@H](NC(=O)[C@H](Cc5ccccc5)NC(=O)[C@@H]5CCCN5C(=O)CNC(=O)[C@H](Cc5ccccc5)NC(=O)[C@H](CNCCCC[C@@H](C(=O)O)NC3=O)NC2=O)C(=O)N[C@@H](Cc2ccccc2)C(=O)N[C@@H](C(C)C)C(=O)N4)cn1` [^99mTc-HYNIC-Duramycin, metal not drawn], the “binding to apoptotic cells” value [1] was “dramatically enhanced”, the “binding to apoptotic cells” value ([1]; listed as 99mTc-HYNIC-Duramycin^1) was “only at background levels” and the “radioactivity uptake in viable cells” value ([1]; viable Jurkat lymphocytes as control) was “remained near background”. It also gave a tissue uptake at 1 h ([2]; Sprague Dawley, rat, 2.3 nmole, total radioactivity, Bone, healthy rats, intravenous, 60 min post-injection (n=4)) of 0.04 ± 0.01 %ID/g, a tissue uptake at 1 h ([2]; Sprague Dawley, rat, 2.3 nmole, total radioactivity, Brain, healthy rats, intravenous, 60 min post-injection (n=4)) of 0.01 ± 0.01 %ID/g and a tissue uptake at 1 h ([2]; Sprague Dawley, rat, 2.3 nmole, total radioactivity, Colon, healthy rats, intravenous, 60 min post-injection (n=4)) of 0.11 ± 0.01 %ID/g. It also gave a tissue uptake at 1 h ([2]; Sprague Dawley, rat, 2.3 nmole, total radioactivity, Fat, healthy rats, intravenous, 60 min post-injection (n=4)) of 0.06 ± 0.06 %ID/g, a tissue uptake at 1 h ([2]; Sprague Dawley, rat, 2.3 nmole, total radioactivity, Heart, healthy rats, intravenous, 60 min post-injection (n=4)) of 0.21 ± 0.16 %ID/g and a tissue uptake at 1 h ([2]; Sprague Dawley, rat, 2.3 nmole, total radioactivity, Kidney, healthy rats, intravenous, 60 min post-injection (n=4)) of 2.32 ± 0.48 %ID/g. It also gave a tissue uptake at 1 h ([2]; Sprague Dawley, rat, 2.3 nmole, total radioactivity, Liver, healthy rats, intravenous, 60 min post-injection (n=4)) of 0.28 ± 0.01 %ID/g, a tissue uptake at 1 h ([2]; Sprague Dawley, rat, 2.3 nmole, total radioactivity, Lung, healthy rats, intravenous, 60 min post-injection (n=4)) of 0.12 ± 0.05 %ID/g and a tissue uptake at 1 h ([2]; Sprague Dawley, rat, 2.3 nmole, total radioactivity, Muscle, healthy rats, intravenous, 60 min post-injection (n=4)) of 0.03 ± 0.01 %ID/g. The tissue uptake at 1 h ([2]; Sprague Dawley, rat, 2.3 nmole, total radioactivity, Pancreas, healthy rats, intravenous, 60 min post-injection (n=4)) was 0.05 ± 0.01 %ID/g, the tissue uptake at 1 h ([2]; Sprague Dawley, rat, 2.3 nmole, total radioactivity, Skin, healthy rats, intravenous, 60 min post-injection (n=4)) was 0.01 ± 0.01 %ID/g and the tissue uptake at 1 h ([2]; Sprague Dawley, rat, 2.3 nmole, total radioactivity, Small intestine, healthy rats, intravenous, 60 min post-injection (n=4)) was 0.37 ± 0.07 %ID/g. The tissue uptake at 1 h ([2]; Sprague Dawley, rat, 2.3 nmole, total radioactivity, Spleen, healthy rats, intravenous, 60 min post-injection (n=4)) was 0.1 ± 0.02 %ID/g, the tissue uptake at 1 h ([2]; Sprague Dawley, rat, 2.3 nmole, total radioactivity, Stomach, healthy rats, intravenous, 60 min post-injection (n=4)) was 0.11 ± 0.01 %ID/g and the tissue uptake at 1 h ([2]; Sprague Dawley, rat, 2.3 nmole, total radioactivity, Thymus, healthy rats, intravenous, 60 min post-injection (n=4)) was 0.06 ± 0.02 %ID/g. The tissue uptake at 1 h ([2]; Sprague Dawley, rat, 2.3 nmole, total radioactivity, Thyroid, healthy rats, intravenous, 60 min post-injection (n=4)) was 0.08 ± 0.03 %ID/g, the excreta dose per gram or mL at 1 h ([2]; Sprague Dawley, rat, 2.3 nmole, total radioactivity, Urine, healthy rats, intravenous, 60 min post-injection (n=4), read-out: Uptake) was 22.1 ± 13.2 %ID/g and the tissue uptake at 1 h ([2]; Sprague Dawley, rat, whole blood, 2.3 nmole, total radioactivity, Blood, healthy rats, intravenous, 60 min post-injection (n=4)) was 0.33 ± 0.11 %ID/g. For the same compound, the “signs of toxicity or other adverse effects” value ([2]; at the current dosage tested, rats) was “no signs of toxicity or other adverse effects were observed”, the brain uptake ([2]; healthy rats) was “low” and the route of clearance ([2]; healthy rats) was “renal excretion is the predominant route of clearance”. For the same compound, the “uptake in the hepatic and gastrointestinal regions” value ([2]; healthy rats) was “low uptake; also recorded: very low” and the “detection of radiation-susceptible tissues” value [3] was “Tissues susceptible to radiation-induced cell death were detected”.
